Article PMC9688306, “Construction of Aptamer-Based Nanobiosensor for Breast Cancer Biomarkers Detection Utilizing g-C3N4/Magnetic Nano-Structure”

Target: CA 15-3 (Cancer Antigen 15-3) (UniProt P15941 24-1097)
Experiment: electrochemical aptasensor (CV, SWV, EIS); label-free, ferri/ferrocyanide redox probe; aptamer on g-C3N4/Fe3O4; linear 10-90 U/mL; PBS pH 7.4 (0.1 M), room temperature, 35 min incubation; 0.2 mM ferricyanide probe (label-free) or methylene blue in PBS (label-based)

Sequence of CA 15-3 (Cancer Antigen 15-3) (P15941 24-1097): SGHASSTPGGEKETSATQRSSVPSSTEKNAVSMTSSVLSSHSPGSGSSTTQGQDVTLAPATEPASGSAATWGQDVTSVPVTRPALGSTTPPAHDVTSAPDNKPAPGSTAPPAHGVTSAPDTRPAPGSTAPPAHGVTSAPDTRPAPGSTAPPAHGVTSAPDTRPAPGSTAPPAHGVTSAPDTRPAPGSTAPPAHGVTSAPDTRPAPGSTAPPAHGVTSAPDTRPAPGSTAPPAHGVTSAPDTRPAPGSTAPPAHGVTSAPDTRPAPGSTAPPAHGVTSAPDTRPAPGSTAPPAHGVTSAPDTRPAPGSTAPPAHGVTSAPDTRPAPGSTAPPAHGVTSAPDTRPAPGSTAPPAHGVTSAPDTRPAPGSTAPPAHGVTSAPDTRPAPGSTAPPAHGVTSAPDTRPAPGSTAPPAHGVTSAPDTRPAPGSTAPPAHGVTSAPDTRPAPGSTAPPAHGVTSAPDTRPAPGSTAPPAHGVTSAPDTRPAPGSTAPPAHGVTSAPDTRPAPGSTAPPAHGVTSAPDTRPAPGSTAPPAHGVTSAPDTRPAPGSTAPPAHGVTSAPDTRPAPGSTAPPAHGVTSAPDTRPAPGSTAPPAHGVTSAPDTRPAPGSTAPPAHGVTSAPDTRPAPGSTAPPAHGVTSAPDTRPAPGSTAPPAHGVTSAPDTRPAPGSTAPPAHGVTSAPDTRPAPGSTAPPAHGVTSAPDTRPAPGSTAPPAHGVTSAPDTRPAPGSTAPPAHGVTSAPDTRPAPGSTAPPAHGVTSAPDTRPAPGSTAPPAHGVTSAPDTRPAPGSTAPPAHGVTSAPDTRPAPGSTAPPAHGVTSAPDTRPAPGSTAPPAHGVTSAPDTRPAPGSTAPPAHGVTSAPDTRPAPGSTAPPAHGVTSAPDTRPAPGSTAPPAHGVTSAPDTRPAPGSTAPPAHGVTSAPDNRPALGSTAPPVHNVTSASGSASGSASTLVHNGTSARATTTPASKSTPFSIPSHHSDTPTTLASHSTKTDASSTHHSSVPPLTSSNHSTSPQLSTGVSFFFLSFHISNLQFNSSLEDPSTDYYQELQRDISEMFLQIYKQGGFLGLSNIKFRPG

GAAGTGAATATGACAGATCACAACT (ssDNA) [CA 15-3 aptamer]: binds.
